A short description of this data set: self-splicing fitness, log relative to wild type (ln ratio); higher = more splicing; Tetrahymena group I intron in knt gene, E. coli kanamycin selection, DiMSum; sequences stand for … in CUCUCU…GGAGGGAAAAGUUAUCAGGCAUGCACCUGGUAGCUAGUCUUUAAACCAAUAGAUUGCAUCGGUUUAAAAGGCAAGACCGUCAAAUUGCGGGAAAGGGGUCAACAGCCGUUCAGUACCAAGUCUCAGGGGAAACUUUGAGAUGGCCUUGCAAAGGGUAUGGUAAUAAGCUGACGGACAUGGUCCUAACCACGCAGCCAAGUCCUAAGUCAACAGAUCUUCUGUUGAUAUGGAUGCAGUUCACAGACUAAAUGUCGGUCGGGGAAGAUGUAUUCUUCUCAUAAGAUAUAGUCGGACCUCUCCUUAAUGGGAGCUAGCGGAUGAAGUGAUGCAACACUGGAGCCGCUGGGAACUAAUUUGUAUGCGAAAGUAUAUUGAUUAGUUUUGGAGUACUCGUGGUCG
An outline of the steps: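 Six replicate transformations of E. coli BL21(DE3) with a pET-22b(+) library were grown overnight at 37°C or 30°C. The library randomised all eight P1ex-region intron nucleotides, the intron lying in the knt kanamycin-resistance gene, and plates were LB agar with or without 25 μg/mL kanamycin plus 100 μg/mL carbenicillin, 50 μM IPTG and 0.2% rhamnose. Pooled colonies were amplicon-sequenced on an Illumina HiSeq 2500, and fitness is the DiMSum error-weighted combination of wild-type-normalised replicate fold changes, kanamycin versus none.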

± gives the uncertainty stated by the source.

This is an account of results in the supplement of paper PMC7877785.

Turning to CCUGAGCAAUAUUACGUCUG, the “self-splicing fitness (ln)” value was -2.44 ± 0.14 (30 °C) and -1.4 ± 0.13 (37 °C).

CCCGAGCAAUAUUACGAGGA: the “self-splicing fitness (ln)” value reads like this: (30 °C) -2.48 ± 0.17; (37 °C) -0.976 ± 0.11.

With AAUAAGCAAUAUUACGUCCC, the “self-splicing fitness (ln)” value is -0.502 ± 0.17 (30 °C) and 0.393 ± 0.26 (37 °C).

For GCAGAGCAAUAUUACGCAGC, the “self-splicing fitness (ln)” value (30 °C) is -2.42 ± 0.47.

With GGGUAGCAAUAUUACGUUUG, the “self-splicing fitness (ln)” value by setting is: (30 °C) -1.9 ± 0.14; (37 °C) -1.35 ± 0.21.

As to ACCGAGCAAUAUUACGGCGU, the “self-splicing fitness (ln)” value is -0.733 ± 0.082 (30 °C) and -0.172 ± 0.11 (37 °C).

On to GUAGAGCAAUAUUACGCGUA, for which the “self-splicing fitness (ln)” value by setting is: (30 °C) -1.64 ± 0.2; (37 °C) -0.093 ± 0.25.

Turning to CGAGAGCAAUAUUACGGGUA, the “self-splicing fitness (ln)” value (30 °C) is -2.27 ± 0.31 and the “self-splicing fitness (ln)” value (37 °C) is -2.23 ± 0.27.

On to GAGCAGCAAUAUUACGCAGC, for which the “self-splicing fitness (ln)” value runs as follows: (30 °C) -3.7 ± 0.21; (37 °C) -2.61 ± 0.29.

In the case of AAGAAGCAAUAUUACGCAUG, the “self-splicing fitness (ln)” value is -1.63 ± 0.13 (30 °C) and -0.526 ± 0.13 (37 °C).

On to CCGCAGCAAUAUUACGUUAG, for which the “self-splicing fitness (ln)” value is, setting by setting: (30 °C) -1.11 ± 0.064; (37 °C) -0.553 ± 0.076.

Take UGCCAGCAAUAUUACGAAGA: the “self-splicing fitness (ln)” value was -2.87 ± 0.18 (30 °C) and -1.33 ± 0.14 (37 °C).

As for GGACAGCAAUAUUACGGCAA, the “self-splicing fitness (ln)” value was -1.32 ± 0.12 (30 °C) and -0.645 ± 0.12 (37 °C).

For the sequence CGGCAGCAAUAUUACGCAAA, the “self-splicing fitness (ln)” value (30 °C) was -2.77 ± 0.2 and the “self-splicing fitness (ln)” value (37 °C) is -2.43 ± 0.22.

Turning to GUAGAGCAAUAUUACGAGAG, the “self-splicing fitness (ln)” value (37 °C) was -2.05 ± 0.36.

UCCCAGCAAUAUUACGGGGA: the “self-splicing fitness (ln)” value by setting is: (30 °C) -3.53 ± 0.17; (37 °C) -2.43 ± 0.16.

As for AGGCAGCAAUAUUACGGAAC, the “self-splicing fitness (ln)” value by setting is: (30 °C) -4.21 ± 0.47; (37 °C) -2.29 ± 0.36.

As to CUCCAGCAAUAUUACGACAA, the “self-splicing fitness (ln)” value reads like this: (30 °C) -2.27 ± 0.23; (37 °C) -2.29 ± 0.31.

For CAACAGCAAUAUUACGAACA, the “self-splicing fitness (ln)” value is -2.43 ± 0.099 (30 °C) and -1.17 ± 0.075 (37 °C).

On to UGGUAGCAAUAUUACGACAC, for which the “self-splicing fitness (ln)” value by setting is: (30 °C) -2.43 ± 0.32; (37 °C) -1.69 ± 0.18.

As to GGACAGCAAUAUUACGAUUC, the “self-splicing fitness (ln)” value runs as follows: (30 °C) -0.338 ± 0.063; (37 °C) 0.353 ± 0.078.

GCUGAGCAAUAUUACGCAUC: the “self-splicing fitness (ln)” value (30 °C) is -1.72 ± 0.26 and the “self-splicing fitness (ln)” value (37 °C) is -0.374 ± 0.33.

For CAGGAGCAAUAUUACGAUCA, the “self-splicing fitness (ln)” value was -1.84 ± 0.16 (30 °C) and -2.74 ± 0.28 (37 °C).

Turning to AUGGAGCAAUAUUACGAAUC, the “self-splicing fitness (ln)” value is -3.53 ± 0.32 (30 °C) and -1.97 ± 0.36 (37 °C).

For GCAAAGCAAUAUUACGGUAU, the “self-splicing fitness (ln)” value is -1.32 ± 0.072 (30 °C) and -0.489 ± 0.096 (37 °C).

In the case of GUUGAGCAAUAUUACGCCGG, the “self-splicing fitness (ln)” value (37 °C) turned out to be 0.442 ± 0.29.

With GUUCAGCAAUAUUACGGUGU, the “self-splicing fitness (ln)” value is -0.503 ± 0.05 (30 °C) and 0.262 ± 0.075 (37 °C).

As for CCCUAGCAAUAUUACGCGCG, the “self-splicing fitness (ln)” value is -3.46 ± 0.16 (30 °C) and -3.35 ± 0.27 (37 °C).

With CGACAGCAAUAUUACGAAGC, the “self-splicing fitness (ln)” value was -2.91 ± 0.24 (30 °C) and -3.43 ± 0.35 (37 °C).

As for UCGCAGCAAUAUUACGCCGA, the “self-splicing fitness (ln)” value is -1.83 ± 0.19 (30 °C) and -2.26 ± 0.22 (37 °C).

For the sequence ACGCAGCAAUAUUACGCUAU, the “self-splicing fitness (ln)” value was -1.25 ± 0.077 (30 °C) and -0.724 ± 0.11 (37 °C).

As to CAGGAGCAAUAUUACGUAUU, the “self-splicing fitness (ln)” value is, setting by setting: (30 °C) -2.97 ± 0.21; (37 °C) -2.2 ± 0.18.

Take GUUUAGCAAUAUUACGCGUC: the “self-splicing fitness (ln)” value runs as follows: (30 °C) -1.79 ± 0.24; (37 °C) -0.647 ± 0.24.

GACAAGCAAUAUUACGUUUC: the “self-splicing fitness (ln)” value by setting is: (30 °C) -4.22 ± 0.19; (37 °C) -2.25 ± 0.16.
